{
  "source": "patent US20190269793",
  "key": {"Vaccinia virus K3": {"biological_target": "T1, Vaccinia virus K3", "T1 chain": "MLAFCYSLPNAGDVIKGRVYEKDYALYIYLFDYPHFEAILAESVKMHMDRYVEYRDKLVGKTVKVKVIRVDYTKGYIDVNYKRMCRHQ"}, "Vaccinia virus E3": {"biological_target": "T2, Vaccinia virus E3", "T2 chain": "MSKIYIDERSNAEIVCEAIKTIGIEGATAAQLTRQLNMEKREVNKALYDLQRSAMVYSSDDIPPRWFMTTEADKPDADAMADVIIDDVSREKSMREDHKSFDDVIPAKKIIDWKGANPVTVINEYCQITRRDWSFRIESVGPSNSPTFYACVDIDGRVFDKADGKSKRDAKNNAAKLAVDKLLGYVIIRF"}},
  "data": [
    {"protein": "RNA-dependent protein kinase (PKR) (protein) AGDLSAGFFMEELNTYRQKQGVVLKYQELPNSGPPHDRRFTFQVIIDGREFPEGEGRSKKEAKNAAAKLAVEILNKEKKAVSPLLLTTTNSSEGLSMGNYIGLINRIAQKKRLTVNYEQCASGVHGPEGFHYKCKMGQKEYSIGTGSTKQEAKQLAAKLAYLQILSEETSVKSDYLSSGSFATTCESQSNSLVTSTLASESSSEGDFSADTSEINSNSDSLNSSSLLMNGLRNNQRKAKRSLAPRFDLPDMKETKYTVDKRFGMDFKEIELIGSGGFGQVFKAKHRIDGKTYVIKRVKYNNEKAEREVKALAKLDHVNIVHYNGCWDGFDYDPETSDDSLESSDYDPENSKNSSRSKTKCLFIQMEFCDKGTLEQWIEKRRGEKLDKVLALELFEQITKGVDYIHSKKLIHRDLKPSNIFLVDTKQVKIGDFGLVTSLKNDGKRTRSKGTLRYMSPEQISSQDYGKEVDLYALGLILAELLHVCDTAFETSKFFTDLRDGIISDIFDKKEKTLLQKLLSKKPEDRPNTSEILRTLTVWKKSPEKNERHTC", "values": [
      {"measurement": "PKR autophosphorylation (Western blot with phospho-PKR specific antibody)", "setting": "Vaccinia virus K3", "result": "E3 and K3 reduce PKR autophosphorylation"},
      {"measurement": "PKR autophosphorylation (Western blot with phospho-PKR specific antibody)", "setting": "Vaccinia virus E3", "result": "E3 and K3 reduce PKR autophosphorylation"}
    ]}
  ]
}
